These results are taken from patent US20100081612A1 (GENERAL HOSPITAL, published 2010).

Where no end group is shown, it is not given here.

By IC50 is commonly meant the point on the concentration scale where inhibition reaches its midpoint. The low end stands for greater potency, the high end for weaker potency.

T1: wild-type human PTHR (human, UniProt Q03431 27-593)
T1 construct: whole, on cells; also called PTHR-WT; intact PTHR
T1 sequence (looked up): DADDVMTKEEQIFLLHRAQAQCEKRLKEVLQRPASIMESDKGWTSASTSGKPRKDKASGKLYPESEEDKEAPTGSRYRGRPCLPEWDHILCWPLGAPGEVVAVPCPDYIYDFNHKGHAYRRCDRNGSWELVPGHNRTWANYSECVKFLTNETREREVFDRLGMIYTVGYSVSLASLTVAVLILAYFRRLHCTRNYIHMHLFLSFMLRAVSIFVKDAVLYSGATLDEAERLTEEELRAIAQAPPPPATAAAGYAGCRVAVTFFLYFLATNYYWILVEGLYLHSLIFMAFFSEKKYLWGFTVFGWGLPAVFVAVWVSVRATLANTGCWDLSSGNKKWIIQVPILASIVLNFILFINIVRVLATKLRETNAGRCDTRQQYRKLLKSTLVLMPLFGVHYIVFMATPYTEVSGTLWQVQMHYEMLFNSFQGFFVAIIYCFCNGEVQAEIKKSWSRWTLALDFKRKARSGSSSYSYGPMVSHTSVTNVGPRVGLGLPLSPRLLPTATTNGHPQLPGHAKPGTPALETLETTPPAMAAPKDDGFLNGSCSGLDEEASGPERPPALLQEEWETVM

B1: PTH(1-31)NH2 Glu^19→Ala (peptide)
peptide: SVSEIQLMHNLGKHLNSMARVEWLRKKLQDV-NH2
B2: PTH(1-31)NH2 Lys^26→Ala (peptide)
peptide: SVSEIQLMHNLGKHLNSMERVEWLRAKLQDV-NH2
B3: PTH(1-31)NH2 Glu^22→Ala (peptide)
peptide: SVSEIQLMHNLGKHLNSMERVAWLRKKLQDV-NH2
B4: PTH(1-31)NH2 Ser^17→Ala (peptide)
peptide: SVSEIQLMHNLGKHLNAMERVEWLRKKLQDV-NH2
B5: PTH(1-31)NH2 Trp^23→Ala (peptide)
peptide: SVSEIQLMHNLGKHLNSMERVEALRKKLQDV-NH2
B6: PTH(1-31)NH2 Leu^24→Ala (peptide)
peptide: SVSEIQLMHNLGKHLNSMERVEWARKKLQDV-NH2
B7: PTH(1-31)NH2 Met^18→Ala (peptide)
peptide: SVSEIQLMHNLGKHLNSAERVEWLRKKLQDV-NH2

One test deals with T1, wild-type human PTHR. Kind of test: competition binding, HKRK-B7 cells, 125I-PTH(1-34) tracer. An outline of the steps: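 Intact HKRK-B7 cells incubated 4 h at 15° C with ¹²⁵I-[Nle⁸,²¹,Tyr³⁴]ratPTH(1-34)NH₂ tracer and unlabeled peptide at 3×10⁻⁹ to 1×10⁻⁵ M; lysate gamma-counted. Non-specific binding defined with 1×10⁻⁶ M PTH(1-31)NH₂. Specific binding expressed as % of that without competitor.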
As to B1, the IC50 was found to be 49 nM. This lies in the double-digit nanomolar range.

With B2, the half-inhibitory concentration (IC50) is 125 nM.

In turn, B3 showed an IC50 of 36 nM.

In turn, B4 showed an IC50 of 57 nM.

For the molecule B5, the IC50 was 1310 nM. This IC50 is about 23-fold higher than that of the molecule before.

B6 had an IC50 of 807 nM.

The molecule B7 had a half-inhibitory concentration (IC50) of 92 nM.

Another test deals with PTHR-delNt (human) (UniProt Q03431). Put plainly: competition binding, COS-7 membranes, 125I-[Aib1,3,M]PTH(1-15) tracer.
On to B1, for which the IC50 stood at 2940 nM.

B2 returned an IC50 of 6210 nM.

In the case of B3, the half-inhibitory concentration (IC50) came out at 5860 nM. The IC50 values of the last two molecules are within 1.5-fold of each other.

In turn, B4 registered a concentration for half-maximal inhibition (IC50) of 4580 nM.

B5 displayed an IC50 of 7360 nM and a fold reduction in binding affinity vs PTH(1-31)NH2 of 2 fold.

Turning to B6, the IC50 came out at 8760 nM and the fold reduction in binding affinity vs PTH(1-31)NH2 was determined as 2 fold.

B7 gave an IC50 of 8800 nM.

For a further test, the target named is T1, wild-type human PTHR. Kind of test: cell-based or functional assay.
Turning to B1, the “inositol phosphate (IP) production, peptide at 1×10^-6 M” value (“inositol phosphate (IP) production” below) was found to be 4 fold.

In the case of B2, the “inositol phosphate (IP) production” value was found to be 4 fold.

In the case of B3, the “inositol phosphate (IP) production” value stood at 4 fold.

For B4, the “inositol phosphate (IP) production” value was 4 fold.

For B5, the “inositol phosphate (IP) production” value was found to be 4 fold.

For the molecule B6, the “inositol phosphate (IP) production” value is 4 fold.

For the molecule B7, the “inositol phosphate (IP) production” value was 4 fold.

Another test deals with T1, wild-type human PTHR. Kind of test: competition binding, HKRK-B7 cells, 125I-PTH(1-34) tracer. This is another data set of the same source.
With B1, the “fold enhancement in binding affinity vs PTH(1-31)NH2” value is at most 2 fold.

B2: the “fold change in binding affinity vs PTH(1-31)NH2” value (from here on “fold change in binding affinity”) is at most 2 fold.

For B3, the “fold enhancement in binding affinity vs PTH(1-31)NH2” value was at most 2 fold.

For the molecule B4, the “fold change in binding affinity” value was at most 2 fold.

In the case of B5, the “fold reduction in binding affinity vs PTH(1-31)NH2” value was 19 fold.

Regarding B6, the “fold reduction in binding affinity vs PTH(1-31)NH2” value came to 12 fold.

For the molecule B7, the “fold change in binding affinity” value was at most 2 fold.
